According to patent US20240025993A1 (Novartis, published 2024):

Target: T1, human CD19 (human, UniProt P15391 20-556)
T1 construct: whole, on cells; also called huCD19; hCD19
T1 sequence (looked up): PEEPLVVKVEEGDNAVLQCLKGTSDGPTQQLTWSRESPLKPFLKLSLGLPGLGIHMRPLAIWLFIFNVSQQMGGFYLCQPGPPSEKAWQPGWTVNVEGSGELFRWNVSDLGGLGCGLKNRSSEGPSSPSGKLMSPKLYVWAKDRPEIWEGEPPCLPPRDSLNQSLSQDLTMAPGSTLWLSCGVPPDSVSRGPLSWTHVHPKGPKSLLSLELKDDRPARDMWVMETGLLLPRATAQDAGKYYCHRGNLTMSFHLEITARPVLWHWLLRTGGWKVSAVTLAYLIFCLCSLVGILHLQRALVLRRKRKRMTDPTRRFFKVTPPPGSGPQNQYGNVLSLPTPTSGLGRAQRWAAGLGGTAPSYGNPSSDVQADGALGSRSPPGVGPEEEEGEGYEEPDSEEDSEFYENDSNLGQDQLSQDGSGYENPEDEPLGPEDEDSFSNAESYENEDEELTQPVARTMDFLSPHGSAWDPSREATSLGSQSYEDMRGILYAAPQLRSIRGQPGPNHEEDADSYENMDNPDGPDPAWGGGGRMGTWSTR
Experiment: summary sentence of the examples; no method at this place

binding result: binds
B1: NEG218 (antibody, V domains shown)
VH: EVQLVQSGAEVKKPGESLKISCKASGYSFTNYWMNWVRQMPGKGLEWMGMIHPSDSEIRLNQKFQGQVTLSVDKSIGTAYMQWSSLKASDTAMYYCSRWYYLSSPMDYWGQGTTVTVSS
VL: EIVMTQSPATLSVSPGERATLSCRASQDVGTAVAWYQQKPGQAPRLLIYWASTRHTGIPARFSGSGSGTEFTLTISSLQSEDFAVYFCQQYSSYPYTFGQGTKLEIK
notes: also called CD19 antibody NEG218; anti-CD19 antibody NEG218
